{"source": "patent US20260193370A1", "about": "(SUZHOU SUNCADIA BIOPHARMACEUTICALS, published 2026)", "binders": {"B1": {"name": "Tanezumab (antibody, human IgG2, kappa, V domains shown)", "VH": "QVQLQESGPGLVKPSETLSLTCTVSGFSLIGYDLNWIRQPPGKGLEWIGIIWGDGTTDYNSAVKSRVTISKDTSKNQFSLKLSSVTAADTAVYYCARGGYWYATSYYFDYWGQGTLVTVSS", "VL": "DIQMTQSPSSLSASVGDRVTITCRASQSISNNLNWYQQKPGKAPKLLIYYTSRFHSGVPSRFSGSGSGTDFTFTISSLQPEDIATYYCQQEHTLPYTFGQGTKLEIKR"}}, "key": {"[1]": {"biological_target": "T1, human NGF protein (Sino biological, 11050-HNAC) (human, UniProt P01138 122-241)", "T1 sequence (P01138 122-241 limits assumed)": "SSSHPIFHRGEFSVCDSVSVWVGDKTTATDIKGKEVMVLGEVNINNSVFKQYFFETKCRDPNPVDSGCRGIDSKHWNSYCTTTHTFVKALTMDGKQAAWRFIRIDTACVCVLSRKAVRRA", "assay": "cell-based or functional assay"}, "[2]": {"biological_target": "T1, human NGF protein (Sino biological, …)", "assay": "cell-based or functional assay", "remark": "listed apart in the source"}}, "data": [{"binder": "B1", "values": [{"measurement": "TF-1 cell proliferation-inhibiting activity, fold relative to bispecific antibody 1", "setting": "[1]", "value": "~4.2", "unit": "fold"}, {"measurement": "TF-1 cell proliferation-inhibiting activity, IC50 (TF-1 cells with human NGF, Cell-titer Glo)", "setting": "[2]", "value": 0.759, "unit": "nM"}]}]}
